Literature values, collected in PMC11394293.

Target: s-Klotho KL1/KL2 (Homo sapiens) (UniProt Q9UEF7)
Sequence of UniProt Q9UEF7 (Q9UEF7 34-981): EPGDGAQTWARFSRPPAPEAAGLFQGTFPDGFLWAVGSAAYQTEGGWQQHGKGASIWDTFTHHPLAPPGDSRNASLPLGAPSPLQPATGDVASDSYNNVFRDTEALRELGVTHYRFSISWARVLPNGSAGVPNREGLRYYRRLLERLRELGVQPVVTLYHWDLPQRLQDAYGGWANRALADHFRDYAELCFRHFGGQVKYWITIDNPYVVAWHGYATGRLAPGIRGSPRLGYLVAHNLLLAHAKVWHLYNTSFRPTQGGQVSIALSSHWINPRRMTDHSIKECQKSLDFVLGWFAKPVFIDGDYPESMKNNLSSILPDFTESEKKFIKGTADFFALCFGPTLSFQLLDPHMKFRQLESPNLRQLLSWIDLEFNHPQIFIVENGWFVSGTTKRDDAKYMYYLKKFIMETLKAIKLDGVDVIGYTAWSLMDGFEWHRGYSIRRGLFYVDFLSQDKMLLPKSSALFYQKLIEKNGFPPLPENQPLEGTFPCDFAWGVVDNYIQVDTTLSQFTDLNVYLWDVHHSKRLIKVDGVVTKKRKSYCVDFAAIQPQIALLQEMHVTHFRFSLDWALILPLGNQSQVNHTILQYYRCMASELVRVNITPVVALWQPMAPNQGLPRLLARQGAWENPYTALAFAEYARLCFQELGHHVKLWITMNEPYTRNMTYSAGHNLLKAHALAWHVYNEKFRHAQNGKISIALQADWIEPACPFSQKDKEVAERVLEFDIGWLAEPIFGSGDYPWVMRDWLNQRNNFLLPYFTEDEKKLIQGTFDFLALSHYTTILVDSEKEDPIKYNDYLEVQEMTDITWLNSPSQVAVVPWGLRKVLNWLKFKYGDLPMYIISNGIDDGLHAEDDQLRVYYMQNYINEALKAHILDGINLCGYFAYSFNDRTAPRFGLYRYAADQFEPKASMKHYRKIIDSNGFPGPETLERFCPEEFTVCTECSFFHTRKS

Kd: 14 nM
Substance: FGF23 (from UniProt Q9GZV9)
